This note sets out measurements from PMC9618040, “Cryo-EM structures of light-harvesting 2 complexes from Rhodopseudomonas palustris reveal the molecular origin of absorption tuning” (Proceedings of the National Academy of Sciences of the …, 2022).

Test [1] deals with PucA-LH2 α-polypeptide (α-apoprotein encoded by the pucBAa gene pair) (Rhodopseudomonas palustris). In words: cryo-EM structure; single-particle cryo-EM of native LH2 complexes purified from intracytoplasmic membranes of single-pucBA deletion strains, in 0.1% LDAO, 20 mM Tris-Cl pH 8.0; C1 maps with relaxed C9 symmetry; γ encloses six of the nine α/β-heterodimers.
The target of another test is T1, PucA-LH2 (Rhodopseudomonas palustris, UniProt P35101+P35106+Q6N9P5).
T1 construct: gene pucAA; native nonameric LH2 complex purified in LDAO from a Rps. palustris mutant with only pucBAa; α9β9γ1; alpha Met1 modelled as Cxm; last nine alpha residues untraced
T1 sequence (P35101 whole entry): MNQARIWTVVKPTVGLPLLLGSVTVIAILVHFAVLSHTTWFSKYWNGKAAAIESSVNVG
T1 sequence (P35106 2-47 limits assumed): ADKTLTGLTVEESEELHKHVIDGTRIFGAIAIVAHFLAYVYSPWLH
T1 sequence (Q6N9P5 1-97): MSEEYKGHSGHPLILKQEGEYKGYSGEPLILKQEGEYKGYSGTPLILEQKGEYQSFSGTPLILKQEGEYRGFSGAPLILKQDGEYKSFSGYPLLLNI
Briefly: cryo-EM structure of the complex, […] Å. The note with it: 9 per complex, between alpha and beta chains; noncovalent. The class given is binding.

For test [2], the target named is PucB-LH2 α-polypeptide (α-apoprotein encoded by the pucBAb gene pair) (Rhodopseudomonas palustris). In words: cryo-EM structure; single-particle cryo-EM of native LH2 complexes purified from intracytoplasmic membranes of single-pucBA deletion strains, in 0.1% LDAO, 20 mM Tris-Cl pH 8.0; C1 maps with relaxed C9 symmetry; γ encloses six of the nine α/β-heterodimers.
Test [3] addresses PucE-LH2 α-polypeptide (α-apoprotein encoded by the pucBAe gene pair) (Rhodopseudomonas palustris). Described as above.
In test [4] the target is PucD-LH2 α-polypeptide (α-apoprotein encoded by the pucBAd gene pair) (Rhodopseudomonas palustris). Described as above.

For orientation: stoichiometry N means a count of units in the complex or per binding partner.

As to “PucA-LH2 α-polypeptide (α-apoprotein encoded by the pucBAa gene pair) (natural protein)”, in test [1], the stoichiometry N was determined as 9.

For `CC(C)=CCC/C(C)=C/C=C/C(C)=C/C=C/C(C)=C/C=C/C=C(C)/C=C/C=C(C)/C=C/C=C(\C)CCCC(C)(C)O` [rhodopin], the “cryo-EM structure of the complex, 2.7 Å” value on PucA-LH2 is “A carotenoid, rhodopin, is sandwiched between α- and β-polypeptides”.

For “PucB-LH2 α-polypeptide (α-apoprotein encoded by the pucBAb gene pair) (natural protein)”, the stoichiometry N in test [2] is 9.

With “PucE-LH2 α-polypeptide (α-apoprotein encoded by the pucBAe gene pair) (natural protein)”, in test [3], the stoichiometry N turned out to be 9.

With “PucD-LH2 α-polypeptide (α-apoprotein encoded by the pucBAd gene pair) (natural protein)”, the stoichiometry N in test [4] stood at 9.
